Measurements taken from article PMC10231232, “Expanding the Physiological Role of Aryl-Alcohol Flavooxidases as Quinone Reductases” (Applied and Environmental Microbiology, 2023).
Where two headings read alike, the source gives them in different places.

Experiments:
[1] = system: T1, PoAAO; assay: steady-state kinetics, absorbance of aldehyde formed; type: biochemical, Pleurotus ostreatus; details: apparent, air-saturated (0.256 mM O2), 50 mM NaPi pH 6.0, 25°C
T1 construct: gene AAO; 60,903 Da
Source text: steady-state kinetics, absorbance of aldehyde formed on PoAAO | The three enzymes oxidized the whole spectrum of alcohols although with different catalytic efficiencies.

[2] = target: T2, PeAAO (Pleurotus eryngii, UniProt O94219); assay: bi-substrate steady-state kinetics, anaerobic, BQ reduction at […] nm; type: biochemical; details: electron acceptor, p-methoxybenzyl alcohol as co-substrate (varied), ping-pong fit, 50 mM NaPi pH 6.0, 25°C
T2 construct: gene aao; 61,847 Da
T2 sequence (O94219 28-593): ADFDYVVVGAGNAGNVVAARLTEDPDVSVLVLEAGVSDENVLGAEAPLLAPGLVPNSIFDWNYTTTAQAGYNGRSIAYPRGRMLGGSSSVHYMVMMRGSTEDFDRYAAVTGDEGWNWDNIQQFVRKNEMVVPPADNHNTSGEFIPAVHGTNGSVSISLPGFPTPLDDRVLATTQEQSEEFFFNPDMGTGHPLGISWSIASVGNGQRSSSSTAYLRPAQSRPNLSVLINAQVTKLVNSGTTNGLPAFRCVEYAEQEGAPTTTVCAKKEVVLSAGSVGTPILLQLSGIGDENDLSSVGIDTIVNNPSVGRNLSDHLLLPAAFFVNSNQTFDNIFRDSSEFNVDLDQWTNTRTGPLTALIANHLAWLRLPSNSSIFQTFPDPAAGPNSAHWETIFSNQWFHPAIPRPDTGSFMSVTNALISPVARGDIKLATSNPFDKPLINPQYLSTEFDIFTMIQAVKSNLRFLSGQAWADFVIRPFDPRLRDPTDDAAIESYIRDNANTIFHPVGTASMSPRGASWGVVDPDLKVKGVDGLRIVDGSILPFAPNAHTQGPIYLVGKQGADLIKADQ

[3] = system: T3, PoAAO; details: read-out: Km(acceptor); electron acceptor; p-methoxybenzyl alcohol as co-substrate (varied), ping-pong fit, anaerobic, 50 mM NaPi pH 6.0, 25°C
T3 construct: gene AAO

[4] = target: T4, BaAAO (Bjerkandera adusta, UniProt A0ABF7PQ87); assay: bi-substrate steady-state kinetics, anaerobic, BQ reduction at […] nm; type: biochemical; details: electron acceptor, p-methoxybenzyl alcohol as co-substrate (varied), ping-pong fit, 50 mM NaPi pH 6.0, 25°C
T4 construct: 62,610 Da; one cysteine
T4 sequence (A0ABF7PQ87 1-580): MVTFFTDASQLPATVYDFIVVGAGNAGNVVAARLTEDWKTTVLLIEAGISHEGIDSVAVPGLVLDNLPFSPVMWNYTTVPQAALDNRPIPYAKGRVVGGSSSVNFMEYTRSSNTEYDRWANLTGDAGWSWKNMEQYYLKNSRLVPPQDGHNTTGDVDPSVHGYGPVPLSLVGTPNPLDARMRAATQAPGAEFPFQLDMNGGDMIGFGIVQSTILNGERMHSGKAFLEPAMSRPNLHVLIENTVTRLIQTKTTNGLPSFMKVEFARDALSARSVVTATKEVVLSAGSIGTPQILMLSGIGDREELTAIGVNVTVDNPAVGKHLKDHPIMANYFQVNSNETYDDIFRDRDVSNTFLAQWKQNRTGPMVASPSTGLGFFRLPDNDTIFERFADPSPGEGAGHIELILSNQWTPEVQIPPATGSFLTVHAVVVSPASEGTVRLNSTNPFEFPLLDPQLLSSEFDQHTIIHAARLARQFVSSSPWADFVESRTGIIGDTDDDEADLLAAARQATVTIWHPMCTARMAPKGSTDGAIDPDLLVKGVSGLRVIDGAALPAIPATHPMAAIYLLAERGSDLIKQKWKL

[5] = substrate: OCc1cccc(Cl)c1; assay: purified protein, by the assay type; parameters: steady-state kinetics, spectrophotometric alcohol oxidation to aldehyde, air-saturated 50 mM NaPi pH 6.0, 25 C; details: pH 6.0
Description: Steady-state kinetic parameters were measured spectrophotometrically by monitoring the oxidation of the different alcohols to the corresponding aldehydes—Δε285, 16,950 M^−1 cm^−1 for [compound left out]; Δε240, 5,923 M^−1 cm^−1 for 3-chloro-benzyl alcohol; Δε309, 8,332 M^−1 cm^−1 for vanillyl alcohol; Δε307, 7,383 M^−1 cm^−1 for [compound left out]; Δε280, 30,140 M^−1 cm^−1 for 2,4-hexadien-1-ol from ([15]); Δε295, 15,000 M^−1 cm^−1 for 3-chloro-p-mehxoybenzyl alcohol from ([38]); and Δε310, 9,300 M^−1 cm^−1 for [compound left out] from Guillén et al. ([59])—in air-saturated (0.256 mM O2 concentration) 50 mM NaPi, pH 6.0, at 25°C. Steady-state kinetic analyses and statistical fits were performed using the SigmaPlot program. Apparent kinetic parameters in atmospheric oxygen were determined by fitting initial reaction rates (v0) at different alcohol concentrations to the Michaelis-Menten equation (equation 1). (1) v0/e = kcat[A]/Km + [A] The steady-state curves and resulting kinetic parameters for oxidation of different alcohols under atmospheric conditions with O2 as an electron acceptor were compared for PoAAO, BaAAO, and PeAAO (Fig. S4 and Table S1). The three enzymes oxidized the whole spectrum of alcohols although with different catalytic efficiencies.

[6] = substrate: COc1ccc(CO)cc1Cl; assay: steady-state kinetics, absorbance of aldehyde formed; type: biochemical, Pleurotus eryngii; details: apparent, air-saturated (0.256 mM O2), 50 mM NaPi pH 6.0, 25°C
Source text: (§1) steady-state kinetics, absorbance of aldehyde formed on PeAAO | The three enzymes oxidized the whole spectrum of alcohols although with different catalytic efficiencies.

[7] = substrate: CC=CC=CCO; assay: as above; type: biochemical, Pleurotus eryngii; details: apparent, air-saturated (0.256 mM O2), 50 mM NaPi pH 6.0, 25°C
Source text: as §1

[8] = substrate: COc1ccc(CO)cc1Cl; assay: as above; type: biochemical, Bjerkandera adusta; details: apparent, air-saturated (0.256 mM O2), 50 mM NaPi pH 6.0, 25°C
Source text: (§2) steady-state kinetics, absorbance of aldehyde formed on BaAAO | The three enzymes oxidized the whole spectrum of alcohols although with different catalytic efficiencies.

[9] = substrate: CC=CC=CCO; assay: as above; type: biochemical, Bjerkandera adusta; details: apparent, air-saturated (0.256 mM O2), 50 mM NaPi pH 6.0, 25°C
Source text: as §2

[10] = substrate: COc1cc(CO)ccc1O; assay: as above; type: biochemical, Bjerkandera adusta; details: apparent, air-saturated (0.256 mM O2), 50 mM NaPi pH 6.0, 25°C
Source text: as §2

[11] = substrate: OCc1cccc(Cl)c1; assay: as above; type: biochemical, Bjerkandera adusta; details: apparent, air-saturated (0.256 mM O2), 50 mM NaPi pH 6.0, 25°C
Source text: as §2

## OCc1cccc(Cl)c1 [3-chlorobenzyl alcohol]
[1]
  Km: 80 ± 6 µM

## COc1ccc(CO)cc1O [isovanillyl alcohol]
[1]
  Km: 713 ± 44 µM

## O=C1C=CC(=O)C=C1 [BQ, p-benzoquinone]
[2]
  Km: 48 ± 6 µM
[3]
  Km: 33 ± 4 µM
[4]
  Km: 70 ± 9 µM

## CC=CC=CCO [2,4-hexadien-1-ol]
[1]
  Km: 86 ± 4 µM

## COc1ccc(CO)cc1Cl [3-chloro-p-methoxybenzyl alcohol]
[1]
  Km: 9 ± 1 µM

## COc1ccc(CO)cc1OC [veratryl alcohol]
[1]
  Km: 212 ± 11 µM

B1: PeAAO (Pleurotus eryngii) (protein)
chain: ADFDYVVVGAGNAGNVVAARLTEDPDVSVLVLEAGVSDENVLGAEAPLLAPGLVPNSIFDWNYTTTAQAGYNGRSIAYPRGRMLGGSSSVHYMVMMRGSTEDFDRYAAVTGDEGWNWDNIQQFVRKNEMVVPPADNHNTSGEFIPAVHGTNGSVSISLPGFPTPLDDRVLATTQEQSEEFFFNPDMGTGHPLGISWSIASVGNGQRSSSSTAYLRPAQSRPNLSVLINAQVTKLVNSGTTNGLPAFRCVEYAEQEGAPTTTVCAKKEVVLSAGSVGTPILLQLSGIGDENDLSSVGIDTIVNNPSVGRNLSDHLLLPAAFFVNSNQTFDNIFRDSSEFNVDLDQWTNTRTGPLTALIANHLAWLRLPSNSSIFQTFPDPAAGPNSAHWETIFSNQWFHPAIPRPDTGSFMSVTNALISPVARGDIKLATSNPFDKPLINPQYLSTEFDIFTMIQAVKSNLRFLSGQAWADFVIRPFDPRLRDPTDDAAIESYIRDNANTIFHPVGTASMSPRGASWGVVDPDLKVKGVDGLRIVDGSILPFAPNAHTQGPIYLVGKQGADLIKADQ
notes: 61,847 Da
[5]
  Km: 107 ± 2 µM
  kcat: 22 ± 1 s⁻¹
  kcat/Km: 203 ± 3 mM^-1s^- //
[6]
  Km: 9 ± 1 µM
  kcat: 34 ± 1 s⁻¹
[7]
  Km: 94 ± 4 µM
  kcat: 119 ± 1 s⁻¹

B2: BaAAO (Bjerkandera adusta) (protein)
chain: MVTFFTDASQLPATVYDFIVVGAGNAGNVVAARLTEDWKTTVLLIEAGISHEGIDSVAVPGLVLDNLPFSPVMWNYTTVPQAALDNRPIPYAKGRVVGGSSSVNFMEYTRSSNTEYDRWANLTGDAGWSWKNMEQYYLKNSRLVPPQDGHNTTGDVDPSVHGYGPVPLSLVGTPNPLDARMRAATQAPGAEFPFQLDMNGGDMIGFGIVQSTILNGERMHSGKAFLEPAMSRPNLHVLIENTVTRLIQTKTTNGLPSFMKVEFARDALSARSVVTATKEVVLSAGSIGTPQILMLSGIGDREELTAIGVNVTVDNPAVGKHLKDHPIMANYFQVNSNETYDDIFRDRDVSNTFLAQWKQNRTGPMVASPSTGLGFFRLPDNDTIFERFADPSPGEGAGHIELILSNQWTPEVQIPPATGSFLTVHAVVVSPASEGTVRLNSTNPFEFPLLDPQLLSSEFDQHTIIHAARLARQFVSSSPWADFVESRTGIIGDTDDDEADLLAAARQATVTIWHPMCTARMAPKGSTDGAIDPDLLVKGVSGLRVIDGAALPAIPATHPMAAIYLLAERGSDLIKQKWKL
notes: 62,610 Da; one cysteine
[8]
  Km: 49 ± 4 µM
  kcat: 37 ± 1 s⁻¹
[9]
  Km: 854 ± 32 µM
  kcat: 42 ± 1 s⁻¹
[10]
  Km: 1960 ± 100 µM
  kcat: 38 ± 1 s⁻¹
[11]
  Km: 37 ± 5 µM
  kcat: 13 ± 1 s⁻¹
